Columns and labels:
[1] = tested on: conventional CD4+ T cells, CD4+ Tregs, CD8+ T cells, macrophages, dendritic cells in tumors and spleens; experiment: Flow cytometry of tumors and spleens of MC38 tumor-bearing mice, Day 10; assay type: in vivo, mouse
Protocol: On Day 10 spleens and tumors were collected and weighed from all animals in Groups 7 through 12 and weighed prior to processing. Tissues from four animals in each group were processed to single cell suspensions for flow cytometry analysis at CRL-NC (described below). Tissues from the remaining six animals in each group were preserved in RNAlater, stored at −80° C.
Mouse spleen samples were dissociated by gently grinding the tissue across fine mesh with RPMI-1640 media and lysing red blood cells with ACK (ammonium chloride potassium) buffer according to the manufacturer's instructions. Samples were centrifuged and washed twice with PBS.
Mouse tumor samples were dissociated according to the manufacturer's instructions using the gentleMACS™ “Tumor Dissociation Kit” protocol. Tumor samples were filtered through a 70 μm cell strainer and rinsed twice in PBS/2.5% FBS buffer to remove enzymatic buffer. Total tumor sample and plated well volumes were measured and recorded.
Total tissue volumes and Cellometer counts from each sample were recorded. Final single cell suspensions were prepared in PBS pH 7.4 at 2×10^7 cells/mL and held briefly on ice prior to flow cytometry analysis, including conventional CD4^+ T cells, CD4^+ Tregs, CD8^+ T cells, macrophages, and dendritic cells (as % CD45^+ and as cells/mg tissue).
Single cell suspensions were added into 96-well plates and stained for 30 minutes at 4° C. with 100 μL of the reconstituted Live/Dead Aqua (Life Technologies) following manufacturer's instructions. After two washes with 150 μL of Staining Buffer, Fc receptors were blocked using TruStain Fc (Biolegend) in 100 μL volume for five to ten minutes on ice prior to immunostaining. Cells were stained for 30 minutes at 37° C. with antibody panels as described in the protocol. Cells were washed twice with 150 μL of Staining Buffer and resuspended in […] Staining Buffer for analysis. For staining of internal markers such as FoxP3, cells were permeabilized with 200 μL of Transcription Factor Fixation/Permeabilization buffer (eBioscience) for 15 minutes at 4° C. according to manufacturer's instructions. After two washes with 150 μL of Permeabilization Buffer (eBioscience), internal marker staining was carried out using 0.1 μg of each antibody diluted in 100 μL of Permeabilization Buffer for 30 minutes at 4° C. protected from the light. Cells were washed twice with 150 μL of Permeabilization Buffer and resuspended in 100 μL of Staining Buffer. 100 μL of Staining Buffer containing Countbright beads were added to each sample. Isotype-control antibodies were used as negative staining controls when deemed necessary.
All data were collected on a FortessaLSR (BD) and analyzed with FlowJo software (version 10.0.7r2, Tree Star, Inc.). Cell populations were defined as described in the protocol, and the gating strategy was determined by initial gating on singlets (FSC-H vs. FSCA) and then live cells, based on Live/Dead Aqua viability staining.

[2] = tested on: MC38 murine colon carcinoma cells; experiment: Anti-tumor efficacy in subcutaneous MC38 syngeneic tumor model (tumor growth, survival); assay type: in vivo, mouse; conditions: for tumor growth inhibition (TGI): Day 11; for tumor growth outcome (summary in words): treatment arm summaries
Protocol: The characteristics of each animal study group, the administration of the test articles and timing, the collection of samples and the overall study design are as shown in Tables 1 and 2:
(68-72° F.) and 40-60% humidity.
Additional aliquots were stored at 4° C. for use within 72 hours of formulation. Just prior to administration, dosing solutions were remixed with gentle inversion.
Group mean tumor volumes were plotted versus time. When an animal exited the study because of tumor size or TR death, its final recorded tumor volume was included with the data used to calculate the mean volume. Mean tumor volumes were calculated for a group until 50% of the animals had exited the study. Kaplan-Meier plots show the percentage of animals in each group remaining in the study versus time.

[3] = Tolerability in vivo in mice relative to rhIL-2; set-up: species or system mouse; conditions: doses that elicit equivalent or greater expansion of effector cells relative to Tregs

Molecule | macrophages in spleens and tumors [1] | conventional CD4+ T cells in spleen ([1]; compared to vehicle) | tumor growth inhibition (TGI) ([2]; lucitanib monotherapy 10 mg/kg p.o. daily) [%] | median survival time ([2]; lucitanib monotherapy 10 mg/kg p.o. daily for 28 days, vehicle 15 days) [days] | tumor growth outcome (summary in words) [2] | CD4+ Tregs in spleens [1] | CD8+ T cells in spleens and tumors [1] | Foxp3+ regulatory T cells (Tregs) [1] | dendritic cells in spleens and tumors [1] | numbers of conventional CD4+ T cells in tumors ([1]; compared to vehicle) | peripheral CD8+ T cell expansion ([1]; compared to vehicle) | tumor growth inhibition (TGI) ([2]; SEQ ID NO: 2 monotherapy 1.5 mg/kg s.c. once every 3 days) [%] | tumor growth inhibition (TGI) ([2]; SEQ ID NO: 2 monotherapy 3 mg/kg s.c. once every 3 days) [%] | median survival time ([2]; SEQ ID NO: 2 monotherapy 1.5 mg/kg s.c.) [days] | median survival time ([2]; SEQ ID NO: 2 monotherapy 3 mg/kg s.c.) [days] | complete response (number) ([2]; SEQ ID NO: 2 monotherapy arms) | durable complete tumor regressions ([2]; either dose (1.5 or 3 mg/kg) of SEQ ID NO: 2 monotherapy, groups pooled) | tolerability relative to recombinant human IL-2 (rhIL-2) [3]
CNC(=O)c1cccc2cc(Oc3ccnc4cc(OCC5(N)CC5)c(OC)cc34)ccc12 [Lucitanib, 6-(7-((1-Aminocyclopropyl)-methoxy)-6-methoxyquinolin-4-yloxy)-N-methyl-1-naphthamide] | decrease | increase | 100 | 39 | transient inhibition of tumor growth | – | – | – | – | – | – | – | – | – | – | – | – | –
SEQ ID NO: 2: mouse ortholog construct (murine surrogate) of the circularly permuted IL-2/IL-2Rα fusion protein of SEQ ID NO: 1 (protein, Mouse cpIL-2IL-2R-alpha) SKSFQLEDAENFISNIRVTVVKLKGSDNTFECQFDDESATVVDFLRRWIAFCQSIISTSPQGGSSSTQQQQQHLEQLLMDLQELLSRMENYRNLKLPRMLTFKFYLPKQATELKDLQCLEDELGPLRHVLDLTQGSGGGSELCLYDPPEVPNATFKALSYKNGTILNCECKRGFRRLKELVYMRCLGNSWSSNCQCTSNSHDKSRKQVTAQLEHQKEQQTTTDMQKPTQSMHQENLTGHCREPPPWKHEDSKRIYHFVEGQSVHYECIPGYKALQRGPAISICKMKCGKTGWTQPQLTCVDGSHHHHHH | decrease | decreased | – | – | modest tumor growth inhibition | decrease | increase | without an increase | increase | neither treatment with SEQ ID NO: 2 nor the combination with lucitanib changed the numbers | significant peripheral CD8^+ T cell expansion | 25 | 51 | 18 | 22 | 1 | 1/20 | improved tolerability

Reference: patent US20210338656A1, “IMMUNOSTIMULATORY AGENTS IN COMBINATION WITH ANGIOGENESIS INHIBITORS” (Alkermes Pharma Ireland Limited, priority 2020, published 2021)
